This note sets out measurements from the supplement of paper PMC10567573.

The labels stand for the following.
B1: TPD52L1 (parent)
chain: ISKKFGDMSYSIRHSISMPAMRNS
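Also: lentivirally expressed fusions sorted by FACS into six bins by GFP to DsRed ratio, PSI derived from sequencing read proportions per bin multiplied by bin number.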

Variants of B1 are the subject of the data set. Nature of the data set: protein stability index of a GFP-peptide fusion (GPS, HEK-293T) (PSI 1-6); higher = more stable. As to conditions: c terminus: a fixed tail appended.
For the variant ISKKFGDMSYSIRHSISMPAMANS, the protein stability index came out at 2.23. Regarding ISKKFGDMSYSIRHSISMPAMENS, the protein stability index worked out at 2.18.

As to ISKKFGDMSYSIRHSISMPAMNNS, the protein stability index came out at 2.79. With ISKKFGDMSYSIRHSISMPAMLNS, the protein stability index was determined as 1.82. Take ISKKFGDMSYSIRHSISMPAMCNS: the protein stability index came out at 1.97. Take ISKKFGDMSYSIRHSISMPAMKNS: the protein stability index turned out to be 2.75. In the case of ISKKFGDMSYSIRHSISMPAMRNH it was 2.42; in that of ISKKFGDMSYSIRHSISMPAMRNW, 1.44. On to ISKKFGDMSYSIRHSISMPAMRNM, for which the protein stability index stood at 1.82. For the variant ISKKFGDMSYSIRHSISMPAMRNI, the protein stability index amounted to 1.81.

As to ISKKFGDMSYSIRHSISMPAMRNE, the protein stability index turned out to be 2.15.

Take MSKKFGDMSYSIRHSISMPAMRNS: the protein stability index came to 2.33. Then DSKKFGDMSYSIRHSISMPAMRNS, with 3.33; and YSKKFGDMSYSIRHSISMPAMRNS, with 1.54; and RSKKFGDMSYSIRHSISMPAMRNS, with 2.16. Consider CSKKFGDMSYSIRHSISMPAMRNS, for which the protein stability index amounted to 2.26. As to QSKKFGDMSYSIRHSISMPAMRNS, the protein stability index came out at 2.88.

Take ESKKFGDMSYSIRHSISMPAMRNS: the protein stability index worked out at 2.9. In the case of ISKKFGDRSYSIRHSISMPAMRNS it was 2.53. As for ISKKFGDLSYSIRHSISMPAMRNS, the protein stability index was found to be 2.27. Take ISKKFGDESYSIRHSISMPAMRNS: the protein stability index stood at 3.18. In the case of ISKKFGDWSYSIRHSISMPAMRNS it was 2.42. Turning to ISKKFGDVSYSIRHSISMPAMRNS, the protein stability index was determined as 2.38.

As for ISKKFGDKSYSIRHSISMPAMRNS, the protein stability index is 2.48. ISKKFGDGSYSIRHSISMPAMRNS: the protein stability index came out at 2.31. With ISKKFGDFSYSIRHSISMPAMRNS, the protein stability index was determined as 2.19.

Take ISKKFGDMSYSIRHSITMPAMRNS: the protein stability index was found to be 2.11.

With ISKKFGDMSYSIRHSICMPAMRNS, the protein stability index stood at 1.92. For ISKKFGDMSYSIRHSIAMPAMRNS, the protein stability index stood at 2.01. Regarding ISKKFGDMSYSIRHSIDMPAMRNS, the protein stability index is 2.36.

Take ISKKFGDMSYSIRHSIQMPAMRNS: the protein stability index came to 2.48. For ISKKFGDMSYSIRHSIIMPAMRNS, the protein stability index stood at 2.03. Consider ISKKFGDMSYSIRHSIGMPAMRNS, for which the protein stability index is 2.42. Take ISKKFGDMSYSIRHSIVMPAMRNS: the protein stability index worked out at 2.12. As to ISKKFGDMSYSIRHSISMPAGRNS, the protein stability index amounted to 2.4. On to ISKKFGDMSYSIRHSISMPALRNS, for which the protein stability index is 2.27. On to ISKKFGDMSYSIRHSISMPATRNS, for which the protein stability index is 2.49. For the variant ISKKFGDMSYSIRHSISMPAFRNS, the protein stability index amounted to 2.31.

On to ISKKFGDMSYSIRHSISMPARRNS, for which the protein stability index was found to be 2.57. For ISKKFGDMSPSIRHSISMPAMRNS, the protein stability index is 2.97. Turning to ISKKFGDMSRSIRHSISMPAMRNS, the protein stability index came out at 2.41. As for ISKKFGDMSESIRHSISMPAMRNS, the protein stability index worked out at 2.88. In the case of ISKKFGDMSHSIRHSISMPAMRNS it was 2.69; in that of ISKKFGDMSNSIRHSISMPAMRNS, 2.73; in that of ISKKFGDMSFSIRHSISMPAMRNS, 2.01. ISKKFGDMSISIRHSISMPAMRNS: the protein stability index stood at 2.23. For ISKKFGDMSYSIRHSISQPAMRNS, the protein stability index was found to be 2.77. For the variant ISKKFGDMSYSIRHSISWPAMRNS, the protein stability index was found to be 1.7.

On to ISKKFGDMSYSIRHSISNPAMRNS, for which the protein stability index is 2.28. Then ISKKFGDMSYSIRHSISLPAMRNS, with 2.01. As for ISKKFGDMSYSIRHSISCPAMRNS, the protein stability index is 2.21.

On to ISKKFGDMSYSIRHSISFPAMRNS, for which the protein stability index stood at 1.8. Regarding ISKKFGDMSYSIRHSISPPAMRNS, the protein stability index was determined as 2.64. Take ISKKFGDMSYSIRHSISDPAMRNS: the protein stability index was 2.88.

As for ISKKFGDMSYSIRHSISRPAMRNS, the protein stability index is 2.34. Turning to ISKKPGDMSYSIRHSISMPAMRNS, the protein stability index worked out at 2.85. Regarding ISKKIGDMSYSIRHSISMPAMRNS, the protein stability index worked out at 2.37. On to ISKKDGDMSYSIRHSISMPAMRNS, for which the protein stability index is 2.46. On to ISKKRGDMSYSIRHSISMPAMRNS, for which the protein stability index is 2.45. On to ISKKSGDMSYSIRHSISMPAMRNS, for which the protein stability index amounted to 2.67. For ISKKTGDMSYSIRHSISMPAMRNS, the protein stability index stood at 2.24. For the variant ISKKQGDMSYSIRHSISMPAMRNS, the protein stability index is 2.78. With ISKKAGDMSYSIRHSISMPAMRNS, the protein stability index was 2.97. In the case of ISKKGGDMSYSIRHSISMPAMRNS, the protein stability index came to 3.29. Then ISKKFGDMSYSIHHSISMPAMRNS, with 2.37; and ISKKFGDMSYSILHSISMPAMRNS, with 1.77; and ISKKFGDMSYSICHSISMPAMRNS, with 1.78. Consider ISKKFGDMSYSINHSISMPAMRNS, for which the protein stability index came out at 2.1.

As to ISKKFGDMSYSIWHSISMPAMRNS, the protein stability index amounted to 2.29. Then ISKKFGDMSYSIPHSISMPAMRNS, with 2.67. Then ISKKFGDMSYSIGHSISMPAMRNS, with 2.45; and ISKKFGDMSYSTRHSISMPAMRNS, with 2.83; and ISKKFGDMSYSLRHSISMPAMRNS, with 2.71. As to ISKKFGDMSYSSRHSISMPAMRNS, the protein stability index was determined as 2.41. In the case of ISKKFGDMSYSDRHSISMPAMRNS it was 3.07; in that of ISKKFGDMSYSNRHSISMPAMRNS, 3.1. In the case of ISKKFGDMSYSCRHSISMPAMRNS it was 1.54; in that of ISKKFGDMSYSGRHSISMPAMRNS, 2.4. In the case of ISKKFGDMSYSMRHSISMPAMRNS it was 2.44; in that of ISKKFGDMSYSYRHSISMPAMRNS, 2.37; in that of ISKKFGDMSYSQRHSISMPAMRNS, 2.27.

For the variant ISKKFGDMSYSPRHSISMPAMRNS, the protein stability index is 2.98. Take ISKKFGDMSYSIRSSISMPAMRNS: the protein stability index came to 1.8.

For the variant ISKKFGDMSYSIRKSISMPAMRNS, the protein stability index was determined as 2.69. With ISKKFGDMSYSIRGSISMPAMRNS, the protein stability index amounted to 1.88. In the case of ISKKFGDMSYSIRQSISMPAMRNS it was 2.28. Consider ISKKFGDMSYSIRTSISMPAMRNS, for which the protein stability index is 1.9. Turning to ISKKFGDMSYSIRDSISMPAMRNS, the protein stability index is 3.35.

As for ISKKFGDMSYSIRVSISMPAMRNS, the protein stability index amounted to 4.3. Then ISKKFGDMSYSIRYSISMPAMRNS, with 1.7; and ISKKFGDMSYSIRESISMPAMRNS, with 2.33; and ISKKFGDMSYSIRMSISMPAMRNS, with 2.44. Then ISKKFGDMSYSIRRSISMPAMRNS, with 3.72; and ISKKFGDMSYSIRISISMPAMRNS, with 2.73.
